Here are results for 14 proteins from patent publication US20210230570.

This data set has as its target Factor X (FX), P00742.

Factor X (FX), P00742, sequence (P00742 whole entry, looked up): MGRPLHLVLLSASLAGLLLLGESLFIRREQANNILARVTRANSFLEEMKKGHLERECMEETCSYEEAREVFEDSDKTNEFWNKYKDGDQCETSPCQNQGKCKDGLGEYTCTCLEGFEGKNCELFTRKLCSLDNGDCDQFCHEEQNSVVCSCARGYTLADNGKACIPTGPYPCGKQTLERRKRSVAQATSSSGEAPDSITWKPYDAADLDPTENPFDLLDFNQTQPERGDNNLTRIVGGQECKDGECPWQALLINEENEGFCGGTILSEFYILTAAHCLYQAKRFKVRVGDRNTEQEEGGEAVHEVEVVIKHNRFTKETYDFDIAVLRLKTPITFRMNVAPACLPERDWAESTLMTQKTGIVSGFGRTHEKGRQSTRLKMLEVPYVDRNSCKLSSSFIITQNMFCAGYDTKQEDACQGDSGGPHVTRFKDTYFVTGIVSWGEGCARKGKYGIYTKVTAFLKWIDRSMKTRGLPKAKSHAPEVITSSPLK

B1: FIXa-Y155F/K247N/N249S/R338E/T343R/R403E/E410N (protein)
chain 1: YNSGKLEEFVQGNLERECMEEKCSFEEAREVFENTERTTEFWKQYVDGDQCESNPCLNGGSCKDDINSYECWCPFGFEGKNCELDVTCNIKNGRCEQFCKNSADNKVVCSCTEGYRLAENQKSCEPAVPFPCGRVSVSQTSKLTR
chain 2: VVGGEDAKPGQFPWQVVLNGKVDAFCGGSIVNEKWIVTAAHCVETGVKITVVAGEHNIEETEHTEQNRSVIRIIPHHNYNAAINKYNHDIALLELDEPLVLNSYVTPICIADKEYTNIFLKFGSGYVSGWGRVFHKGRSALVLQYLRVPLVDRATCLESTKFRIYNNMFCAGFHEGGRDSCQGDSGGPHVTEVEGTSFLTGIISWGEECAMKGKYGIYTKVSEYVNWIKNKTKLT
Broadly, the kcat is the number of substrate molecules converted per active site and unit of time at saturation. Turning to B1, the kcat stood at 9.8 s⁻¹.

B2: FIXa-Y155F/K247N/N249S/R318Y/E410N (protein)
chain 1: YNSGKLEEFVQGNLERECMEEKCSFEEAREVFENTERTTEFWKQYVDGDQCESNPCLNGGSCKDDINSYECWCPFGFEGKNCELDVTCNIKNGRCEQFCKNSADNKVVCSCTEGYRLAENQKSCEPAVPFPCGRVSVSQTSKLTR
chain 2: VVGGEDAKPGQFPWQVVLNGKVDAFCGGSIVNEKWIVTAAHCVETGVKITVVAGEHNIEETEHTEQNRSVIRIIPHHNYNAAINKYNHDIALLELDEPLVLNSYVTPICIADKEYTNIFLKFGSGYVSGWGRVFHKGYSALVLQYLRVPLVDRATCLRSTKFTIYNNMFCAGFHEGGRDSCQGDSGGPHVTEVEGTSFLTGIISWGEECAMKGKYGIYTKVSRYVNWIKNKTKLT
On to B2, for which the catalytic constant (kcat) was 3.4 s⁻¹.

B3: FIXa-Y155F/K247N/N249S/R338E/R403E (protein)
chain 1: YNSGKLEEFVQGNLERECMEEKCSFEEAREVFENTERTTEFWKQYVDGDQCESNPCLNGGSCKDDINSYECWCPFGFEGKNCELDVTCNIKNGRCEQFCKNSADNKVVCSCTEGYRLAENQKSCEPAVPFPCGRVSVSQTSKLTR
chain 2: VVGGEDAKPGQFPWQVVLNGKVDAFCGGSIVNEKWIVTAAHCVETGVKITVVAGEHNIEETEHTEQNRSVIRIIPHHNYNAAINKYNHDIALLELDEPLVLNSYVTPICIADKEYTNIFLKFGSGYVSGWGRVFHKGRSALVLQYLRVPLVDRATCLESTKFTIYNNMFCAGFHEGGRDSCQGDSGGPHVTEVEGTSFLTGIISWGEECAMKGKYGIYTKVSEYVNWIKEKTKLT
What is called kcat/KM is the second-order rate constant that governs catalysis at low substrate concentration. In the case of B3, the kcat turned out to be 5.3 s⁻¹ and the kcat/KM stood at 1.4e+08 M⁻¹ s⁻¹.

B4: FIXa-Y155F/K247N/N249S/R338E/T343R (protein)
chain 1: YNSGKLEEFVQGNLERECMEEKCSFEEAREVFENTERTTEFWKQYVDGDQCESNPCLNGGSCKDDINSYECWCPFGFEGKNCELDVTCNIKNGRCEQFCKNSADNKVVCSCTEGYRLAENQKSCEPAVPFPCGRVSVSQTSKLTR
chain 2: VVGGEDAKPGQFPWQVVLNGKVDAFCGGSIVNEKWIVTAAHCVETGVKITVVAGEHNIEETEHTEQNRSVIRIIPHHNYNAAINKYNHDIALLELDEPLVLNSYVTPICIADKEYTNIFLKFGSGYVSGWGRVFHKGRSALVLQYLRVPLVDRATCLESTKFRIYNNMFCAGFHEGGRDSCQGDSGGPHVTEVEGTSFLTGIISWGEECAMKGKYGIYTKVSRYVNWIKEKTKLT
For the protein B4, the turnover number (kcat) stood at 10.6 s⁻¹ and the kcat/KM was found to be 7.3e+08 M⁻¹ s⁻¹.

B5: FIXa-K247N/N249S/R318Y/R338E/T343R/E410N (protein)
chain 1: YNSGKLEEFVQGNLERECMEEKCSFEEAREVFENTERTTEFWKQYVDGDQCESNPCLNGGSCKDDINSYECWCPFGFEGKNCELDVTCNIKNGRCEQFCKNSADNKVVCSCTEGYRLAENQKSCEPAVPFPCGRVSVSQTSKLTR
chain 2: VVGGEDAKPGQFPWQVVLNGKVDAFCGGSIVNEKWIVTAAHCVETGVKITVVAGEHNIEETEHTEQNRSVIRIIPHHNYNAAINKYNHDIALLELDEPLVLNSYVTPICIADKEYTNIFLKFGSGYVSGWGRVFHKGYSALVLQYLRVPLVDRATCLESTKFRIYNNMFCAGFHEGGRDSCQGDSGGPHVTEVEGTSFLTGIISWGEECAMKGKYGIYTKVSRYVNWIKNKTKLT
Regarding B5, the kcat is 8.8 s⁻¹ and the kcat/KM was determined as 3.2e+08 M⁻¹ s⁻¹.

B6: FIXa-Y155F/K247N/N249S/R318Y/R338E/T343R/E410N (protein)
chain 1: YNSGKLEEFVQGNLERECMEEKCSFEEAREVFENTERTTEFWKQYVDGDQCESNPCLNGGSCKDDINSYECWCPFGFEGKNCELDVTCNIKNGRCEQFCKNSADNKVVCSCTEGYRLAENQKSCEPAVPFPCGRVSVSQTSKLTR
chain 2: VVGGEDAKPGQFPWQVVLNGKVDAFCGGSIVNEKWIVTAAHCVETGVKITVVAGEHNIEETEHTEQNRSVIRIIPHHNYNAAINKYNHDIALLELDEPLVLNSYVTPICIADKEYTNIFLKFGSGYVSGWGRVFHKGYSALVLQYLRVPLVDRATCLESTKFRIYNNMFCAGFHEGGRDSCQGDSGGPHVTEVEGTSFLTGIISWGEECAMKGKYGIYTKVSRYVNWIKNKTKLT
On to B6, for which the catalytic constant (kcat) stood at 7.7 s⁻¹ and the kcat/KM was determined as 5e+08 M⁻¹ s⁻¹.

B7: FIXa-Y155F/K247N/N249S/R318Y/R338E (protein)
chain 1: YNSGKLEEFVQGNLERECMEEKCSFEEAREVFENTERTTEFWKQYVDGDQCESNPCLNGGSCKDDINSYECWCPFGFEGKNCELDVTCNIKNGRCEQFCKNSADNKVVCSCTEGYRLAENQKSCEPAVPFPCGRVSVSQTSKLTR
chain 2: VVGGEDAKPGQFPWQVVLNGKVDAFCGGSIVNEKWIVTAAHCVETGVKITVVAGEHNIEETEHTEQNRSVIRIIPHHNYNAAINKYNHDIALLELDEPLVLNSYVTPICIADKEYTNIFLKFGSGYVSGWGRVFHKGYSALVLQYLRVPLVDRATCLESTKFTIYNNMFCAGFHEGGRDSCQGDSGGPHVTEVEGTSFLTGIISWGEECAMKGKYGIYTKVSRYVNWIKEKTKLT
Turning to B7, the turnover number (kcat) was 7.5 s⁻¹.

B8: FIXa-Y155F/K247N/N249S/R318Y/T343R (protein)
chain 1: YNSGKLEEFVQGNLERECMEEKCSFEEAREVFENTERTTEFWKQYVDGDQCESNPCLNGGSCKDDINSYECWCPFGFEGKNCELDVTCNIKNGRCEQFCKNSADNKVVCSCTEGYRLAENQKSCEPAVPFPCGRVSVSQTSKLTR
chain 2: VVGGEDAKPGQFPWQVVLNGKVDAFCGGSIVNEKWIVTAAHCVETGVKITVVAGEHNIEETEHTEQNRSVIRIIPHHNYNAAINKYNHDIALLELDEPLVLNSYVTPICIADKEYTNIFLKFGSGYVSGWGRVFHKGYSALVLQYLRVPLVDRATCLRSTKFRIYNNMFCAGFHEGGRDSCQGDSGGPHVTEVEGTSFLTGIISWGEECAMKGKYGIYTKVSRYVNWIKEKTKLT
On to B8, for which the catalytic constant (kcat) stood at 10.3 s⁻¹.

B9: FIXa-Y155F/K247N/N249S/R318Y/R403E (protein)
chain 1: YNSGKLEEFVQGNLERECMEEKCSFEEAREVFENTERTTEFWKQYVDGDQCESNPCLNGGSCKDDINSYECWCPFGFEGKNCELDVTCNIKNGRCEQFCKNSADNKVVCSCTEGYRLAENQKSCEPAVPFPCGRVSVSQTSKLTR
chain 2: VVGGEDAKPGQFPWQVVLNGKVDAFCGGSIVNEKWIVTAAHCVETGVKITVVAGEHNIEETEHTEQNRSVIRIIPHHNYNAAINKYNHDIALLELDEPLVLNSYVTPICIADKEYTNIFLKFGSGYVSGWGRVFHKGYSALVLQYLRVPLVDRATCLRSTKFTIYNNMFCAGFHEGGRDSCQGDSGGPHVTEVEGTSFLTGIISWGEECAMKGKYGIYTKVSEYVNWIKEKTKLT
Consider B9, for which the kcat was found to be 1.7 s⁻¹.

B10: FIXa-Y155F/K247N/N249S/R318Y/T343R/R403E (protein)
chain 1: YNSGKLEEFVQGNLERECMEEKCSFEEAREVFENTERTTEFWKQYVDGDQCESNPCLNGGSCKDDINSYECWCPFGFEGKNCELDVTCNIKNGRCEQFCKNSADNKVVCSCTEGYRLAENQKSCEPAVPFPCGRVSVSQTSKLTR
chain 2: VVGGEDAKPGQFPWQVVLNGKVDAFCGGSIVNEKWIVTAAHCVETGVKITVVAGEHNIEETEHTEQNRSVIRIIPHHNYNAAINKYNHDIALLELDEPLVLNSYVTPICIADKEYTNIFLKFGSGYVSGWGRVFHKGYSALVLQYLRVPLVDRATCLRSTKFRIYNNMFCAGFHEGGRDSCQGDSGGPHVTEVEGTSFLTGIISWGEECAMKGKYGIYTKVSEYVNWIKEKTKLT
As for B10, the turnover number (kcat) was determined as 7.5 s⁻¹ and the kcat/KM turned out to be 1.3e+08 M⁻¹ s⁻¹.

B11: FIXa-K247N/N249S/R338E/T343R/R403E/E410N (protein)
chain 1: YNSGKLEEFVQGNLERECMEEKCSFEEAREVFENTERTTEFWKQYVDGDQCESNPCLNGGSCKDDINSYECWCPFGFEGKNCELDVTCNIKNGRCEQFCKNSADNKVVCSCTEGYRLAENQKSCEPAVPFPCGRVSVSQTSKLTR
chain 2: VVGGEDAKPGQFPWQVVLNGKVDAFCGGSIVNEKWIVTAAHCVETGVKITVVAGEHNIEETEHTEQNRSVIRIIPHHNYNAAINKYNHDIALLELDEPLVLNSYVTPICIADKEYTNIFLKFGSGYVSGWGRVFHKGRSALVLQYLRVPLVDRATCLESTKFRIYNNMFCAGFHEGGRDSCQGDSGGPHVTEVEGTSFLTGIISWGEECAMKGKYGIYTKVSEYVNWIKNKTKLT
For the protein B11, the kcat was found to be 10.8 s⁻¹.

B12: FIXa-Y155F/K247N/N249S/R338E/E410N (protein)
chain 1: YNSGKLEEFVQGNLERECMEEKCSFEEAREVFENTERTTEFWKQYVDGDQCESNPCLNGGSCKDDINSYECWCPFGFEGKNCELDVTCNIKNGRCEQFCKNSADNKVVCSCTEGYRLAENQKSCEPAVPFPCGRVSVSQTSKLTR
chain 2: VVGGEDAKPGQFPWQVVLNGKVDAFCGGSIVNEKWIVTAAHCVETGVKITVVAGEHNIEETEHTEQNRSVIRIIPHHNYNAAINKYNHDIALLELDEPLVLNSYVTPICIADKEYTNIFLKFGSGYVSGWGRVFHKGRSALVLQYLRVPLVDRATCLESTKFTIYNNMFCAGFHEGGRDSCQGDSGGPHVTEVEGTSFLTGIISWGEECAMKGKYGIYTKVSRYVNWIKNKTKLT
Regarding B12, the catalytic constant (kcat) worked out at 7.3 s⁻¹ and the specificity constant (kcat/KM) came to 4.7e+08 M⁻¹ s⁻¹.

B13: FIXa-Y155F/K247N/N249S/R318Y/T343R/R403E/E410N (protein)
chain 1: YNSGKLEEFVQGNLERECMEEKCSFEEAREVFENTERTTEFWKQYVDGDQCESNPCLNGGSCKDDINSYECWCPFGFEGKNCELDVTCNIKNGRCEQFCKNSADNKVVCSCTEGYRLAENQKSCEPAVPFPCGRVSVSQTSKLTR
chain 2: VVGGEDAKPGQFPWQVVLNGKVDAFCGGSIVNEKWIVTAAHCVETGVKITVVAGEHNIEETEHTEQNRSVIRIIPHHNYNAAINKYNHDIALLELDEPLVLNSYVTPICIADKEYTNIFLKFGSGYVSGWGRVFHKGYSALVLQYLRVPLVDRATCLRSTKFRIYNNMFCAGFHEGGRDSCQGDSGGPHVTEVEGTSFLTGIISWGEECAMKGKYGIYTKVSEYVNWIKNKTKLT
Consider B13, for which the kcat was 9 s⁻¹ and the kcat/KM is 1.6e+08 M⁻¹ s⁻¹.

B14: FIXa-K247N/N249S/R318Y/T343R/R403E/E410N (protein)
chain 1: YNSGKLEEFVQGNLERECMEEKCSFEEAREVFENTERTTEFWKQYVDGDQCESNPCLNGGSCKDDINSYECWCPFGFEGKNCELDVTCNIKNGRCEQFCKNSADNKVVCSCTEGYRLAENQKSCEPAVPFPCGRVSVSQTSKLTR
chain 2: VVGGEDAKPGQFPWQVVLNGKVDAFCGGSIVNEKWIVTAAHCVETGVKITVVAGEHNIEETEHTEQNRSVIRIIPHHNYNAAINKYNHDIALLELDEPLVLNSYVTPICIADKEYTNIFLKFGSGYVSGWGRVFHKGYSALVLQYLRVPLVDRATCLRSTKFRIYNNMFCAGFHEGGRDSCQGDSGGPHVTEVEGTSFLTGIISWGEECAMKGKYGIYTKVSEYVNWIKNKTKLT
Consider B14, for which the kcat came out at 9.5 s⁻¹ and the kcat/KM was 1.3e+08 M⁻¹ s⁻¹.
